According to patent publication US9518268B2, “Drought tolerant transgenic plants and method of making same” (PURDUE RESEARCH FOUNDATION, priority 2013, dated 2016):

B1: PYL13: Arabidopsis thaliana PYR/PYL/RCAR family protein PYL13, SEQ ID NO: 1 (protein, listed as Arabidopsis thaliana)
chain: MESSKQKRCRSSVVETIEAPLPLVWSILRSFDKPQAYQRFVKSCTMRSGGGGGKGGEGKGSVRDVTLVSGFPADFSTERLEELDDESHVMVVSIIGGNHRLVNYKSKTKVVASPEDMAKKTVVVESYVVDVPEGTSEEDTIFFVDNIIRYNLTSLAKLTKKMMK

Tested on: RD29B-LUC expression
Experiment: ABA-independent induction of RD29B-LUC in triple mutant protoplasts
Type: cell-based, Arabidopsis
Details: abi1/hab1/abi2 protoplasts
Excerpt: The basal RD29B-LUC expression level was elevated in protoplasts co-transfected with PP2CA-PYL13, HAI2-PYL13, or HAI3-PYL13, which is consistent with PYL13 inhibition of these PP2Cs in an ABA-independent manner in vivo (FIG. 4A). To exclude interference by endogenous PP2Cs in wild type protoplasts and to assess the ABA-independent selective inhibition of PP2Cs by PYL13, PYL13 was co-expressed with PP2CA, HAI1, HAI2, and HAI3 in abi1/hab1/abi2 triple mutant protoplasts, as shown in FIG. 4C. After transfection, protoplasts were incubated for 4.5 h under light in the absence of ABA. Error bars indicate s.e.m. (n=3).
Expression of RD29B-LUC in the absence of ABA was increased in the transfections of PYL9-K63Q/L89F or PYL11-K39Q/L66F together with SnRK2.6 and ABF2 to a considerable level. The ABA-independent RD29B-LUC expression is about 70% of that in the presence of 5 μM ABA in the transfection of PYL11-K39Q/L66F, while about 30˜60% in the transfection of PYL9-K63Q/L89F (FIG. 4). […] RD29B-LUC was used as the ABA-responsive reporter. ZmUBQ-GUS was used as the internal control. After transfection, protoplasts were incubated for 4.5 h under light in the absence of ABA (open bars) or in the presence of 5 μM ABA (closed bars). Error bars indicate s.e.m. (n=4).
Assays for transient expression in protoplasts were performed as described (Fujii et al., 2009). Leaf strips (0.5 mm) were cut from the middle part of second leaves using a razor blade (VWR SCIENTIFIC) and submerged in 15 mL of enzyme solution containing 20 mM MES, pH 5.7, 1.5% (w/v) cellulase R10 (YAKULT PHARMACEUTICAL INDUSTRY), 0.4% (w/v) macerozyme R10 (YAKULT PHARMACEUTICAL INDUSTRY), 0.4 M mannitol, 20 mM KCl, 10 mM CaCl2, 1 mM 2-mercaptoethanol, and 0.1% BSA. The leaves were vacuum infiltrated for 30 min and then incubated without shaking for 3 h in the dark at room temperature. The enzyme/protoplast solution was diluted with 15 mL of W5 solution (2 mM MES, pH 5.7, 154 mM NaCl, 125 mM CaCl2, and 5 mM KCl) and filtered with a 75-μm nylon mesh. Protoplasts were centrifuged at 100 g for 2 min in a 30-mL round-bottomed tube (SARSTEDT), resuspended in W5 solution, and rested for 30 min at room temperature.
Before transfection, protoplasts were changed into MMg solution (4 mM MES, pH 5.7, 0.4 M mannitol, and 15 mM MgCl2) to a final concentration of 2×10^5 cells per microliter. Protoplasts (100 μl) were gently and thoroughly mixed with the plasmid DNA mixture (less than 10 μl) and 110 μl of PEG solution (40% w/v PEG-4000, 0.2 M mannitol, and 100 mM CaCl2), incubated for 5 min, washed with 440 μl of W5 solution, and resuspended in 50 μl of WI solution (4 mM MES, pH 5.7, 0.5 M mannitol, and 20 mM KCl). After transfection, protoplasts were incubated in WI solution without ABA or with 5 μM ABA under light. The protoplasts were harvested after 4.5 h, frozen in liquid N2, and stored at −80° C.
The frozen protoplasts were resuspended in 50 μl of protoplast lysis buffer containing 2.5 mM Tris-phosphate, pH 7.8, 1 mM DTT, 2 mM DACTAA, 10% (v/v) glycerol, and 1% (v/v) Triton X-100. Protoplast lysates (20 μl) were mixed with 100 μl of LUC mix (PROMEGA), and LUC luminescence was measured with a plate reader (Wallac VICTOR2 plate reader).
Protoplast lysates (2 μl) were mixed with 10 μl of 4-methylumbelliferyl β-D-glucuronide (MUG) substrate mix (10 mM Tris-HCl, pH 8, 1 mM MUG [GOLD BIOTECHNOLOGY], and 2 mM MgCl2). After the mixture was kept for 30 min at 37° C., 100 μl of 0.2 M Na2CO3 was added, and GUS activity was measured using the plate reader with the excitation filter at 355 nm and the emission filter at 460 nm.
All the plasmids used in this assay were purified with the QIAGEN Plasmid Maxi Kit or the QIAGEN Plasmid Midi Kit. The quality of plasmid DNA is important for high transfection efficiency. RD29B::LUC (7 μg of plasmid per transfection) was used as the ABA-responsive reporter. ZmUBQ::GUS (2 μg of plasmid per transfection) was used as the internal control. […]

| Molecule | expression of RD29B-LUC in the absence of ABA (with PP2CA only, SnRK2.6 and ABF2 (control transfection)) | expression of RD29B-LUC in the absence of ABA (with HAI1, SnRK2.6 and ABF2) | expression of RD29B-LUC in the absence of ABA (with PP2CA, HAI2, or HAI3, SnRK2.6 and ABF2) |
| --- | --- | --- | --- |
| PYL2: Arabidopsis thaliana PYL family ABA receptor protein PYL2, AT2G26040 | an increase was not observed | – | – |
| B1 | – | an increase was not observed | increased |
